Source: article PMC2987830

Legend:
[1] = target: FcγRIa of RAW 264.7 cells (mouse (endogenous in RAW 264.7)) (UniProt P26151)
[2] = target: C-terminal truncated Myc-hFcγRIa which lacks the cytoplasmic tail (human) (UniProt P12314); assay: adhesion of bacteria to transfected cells (total cell associated bacteria); COS-1 monolayers transfected with Myc-hFcγRIa, Myc-hFcγRIa-CT, Myc-hFcγRII or pcDNA3 (mock); E. coli K1 at an MOI of 100, 1.5 h, 37°C; cell associated bacteria plated
Sequence of UniProt P12314 (P12314 16-314): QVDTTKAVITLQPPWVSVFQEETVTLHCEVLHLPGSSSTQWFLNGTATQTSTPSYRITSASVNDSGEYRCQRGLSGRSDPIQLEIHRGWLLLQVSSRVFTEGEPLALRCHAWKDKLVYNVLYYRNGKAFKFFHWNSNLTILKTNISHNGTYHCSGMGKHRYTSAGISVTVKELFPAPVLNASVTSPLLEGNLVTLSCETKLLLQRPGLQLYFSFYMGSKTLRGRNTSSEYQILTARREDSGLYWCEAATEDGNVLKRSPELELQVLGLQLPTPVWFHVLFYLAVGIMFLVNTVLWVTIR

Sequence of UniProt P26151 (P26151 25-404): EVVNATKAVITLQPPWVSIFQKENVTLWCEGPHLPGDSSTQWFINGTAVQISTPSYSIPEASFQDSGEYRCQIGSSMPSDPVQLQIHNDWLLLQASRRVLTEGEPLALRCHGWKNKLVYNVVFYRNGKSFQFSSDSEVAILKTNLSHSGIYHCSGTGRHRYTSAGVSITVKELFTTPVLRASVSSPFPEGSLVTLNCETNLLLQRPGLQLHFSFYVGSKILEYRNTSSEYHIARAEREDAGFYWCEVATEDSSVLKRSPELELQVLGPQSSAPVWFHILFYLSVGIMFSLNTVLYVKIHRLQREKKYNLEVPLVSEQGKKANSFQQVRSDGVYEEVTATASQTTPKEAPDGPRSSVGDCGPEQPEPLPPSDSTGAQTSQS

## outer membrane protein A (OmpA) of E. coli K1 (from UniProt P0A910 22-346) (natural protein)
[1]
  reduction of intracellular E. coli K1 in RAW 264.7 cells (gentamicin protection assay) by Fab fragments of anti-OmpA antibody or by anti-FcγRI antibody: 80%
[2]
  decrease of bacterial binding against Myc-hFcγRIa+/COS-1 cells: 30%
